# T1: PUF4 RNA-binding domain (Saccharomyces cerevisiae, UniProt P25339 537-888)
# T1 sequence: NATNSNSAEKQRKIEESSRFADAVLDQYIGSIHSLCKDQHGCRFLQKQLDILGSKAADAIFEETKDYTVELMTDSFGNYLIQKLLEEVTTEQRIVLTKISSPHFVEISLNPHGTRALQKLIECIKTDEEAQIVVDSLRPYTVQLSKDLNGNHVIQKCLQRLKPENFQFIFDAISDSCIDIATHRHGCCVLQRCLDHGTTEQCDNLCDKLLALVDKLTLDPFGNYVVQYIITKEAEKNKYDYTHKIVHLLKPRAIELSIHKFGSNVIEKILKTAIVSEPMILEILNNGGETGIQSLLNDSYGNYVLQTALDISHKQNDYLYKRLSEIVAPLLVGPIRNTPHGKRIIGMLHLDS
# Target: T1, PUF4 RNA-binding domain
# Experiment: Mg; RNA-MaP; 20 mM Na-HEPES pH 7.4, 30 mM KOAc, 0.75 mM MgCl2, 0.1% Tween-20, 5% glycerol, 0.1 mg/mL BSA, 2 mM DTT; 25 C; 0.0125-409.6 nM protein
# Conditions: tags: N-His6-TEV cleaved; C-SNAP kept, Cy3B-labelled; label: tethered on chip by stalled RNA polymerase
row,Binder,Kd [nM]
1,UCUCUUAGUAUUAUUUUCUCUU (ssRNA) [Ib_S1_P5E.1_K5.1_C5.1_H5.1_[T1A]_A5.1_F5.1_[A10T]_T5.1],> 2300
2,UCUCUUCGUAUUAUUCUCUCUU (ssRNA) [Ib_S1_P5E.1_K5.1_C5.1_H5.1_[T1C]_A5.1_F5.1_[A10C]_T5.1],> 2300
3,Id_ii_S2_P4E.2_K4.1_C4.2_[C-2A]_[T-1C]_H4.1_A4.1_F4.1_T4.2_[G10A]_[T11A] (ssRNA) RNA: UUUGAUUAAUAUGAUAUCGUUCUUUCUACUGUAUAUUAAAUUCUUUCUCGAUAUCAUAUUAAUCUUU,0.702
4,Id_ii_S2_P4E.2_K4.1_C4.2_[T-1C]_H4.1_A4.1_F4.1_T4.2_[G10T]_[T11A] (ssRNA) RNA: UUUGAUUAAUAUGAUAUCGUUCUUUCUCCUGUAUAUUAUAUUCUUUCUCGAUAUCAUAUUAAUCUUU,0.342
5,Id_ii_S2_P4E.2_K4.1_C4.2_[T-1G]_H4.1_A4.1_F4.1_T4.2_[G10T]_[T11C] (ssRNA) RNA: UUUGAUUAAUAUGAUAUCGUUCUUUCUCGUGUAUAUUAUCUUCUUUCUCGAUAUCAUAUUAAUCUUU,0.286
6,Id_ii_S2_P4E.2_K4.1_C4.2_[T-1G]_H4.1_A4.1_F4.1_T4.2_[G10A]_[T11A] (ssRNA) RNA: UUUGAUUAAUAUGAUAUCGUUCUUUCUCGUGUAUAUUAAAUUCUUUCUCGAUAUCAUAUUAAUCUUU,0.489
7,Id_ii_S2_P4E.2_K4.1_C4.2_[T-1G]_H4.1_A4.1_F4.1_T4.2 (ssRNA) RNA: UUUGAUUAAUAUGAUAUCGUUCUUUCUCGUGUAUAUUAGUUUCUUUCUCGAUAUCAUAUUAAUCUUU,0.296
8,Id_ii_S2_P4E.2_K4.1_C4.2_H4.1_A4.1_F4.1_T4.2_[T11C] (ssRNA) RNA: UUUGAUUAAUAUGAUAUCGUUCUUUCUCUUGUAUAUUAGCUUCUUUCUCGAUAUCAUAUUAAUCUUU,0.275
9,Id_ii_S2_P4E.2_K4.1_C4.2_[T-1G]_H4.1_A4.1_F4.1_T4.2_[G10T] (ssRNA) RNA: UUUGAUUAAUAUGAUAUCGUUCUUUCUCGUGUAUAUUAUUUUCUUUCUCGAUAUCAUAUUAAUCUUU,0.195
10,Id_ii_S2_P4E.2_K4.1_C4.2_[C-2A]_[T-1A]_H4.1_A4.1_F4.1_T4.2_[G10A]_[T11G] (ssRNA) RNA: UUUGAUUAAUAUGAUAUCGUUCUUUCUAAUGUAUAUUAAGUUCUUUCUCGAUAUCAUAUUAAUCUUU,8.86
11,Id_ii_S2_P4E.2_K4.1_C4.2_[T-1A]_H4.1_A4.1_F4.1_T4.2_[G10C] (ssRNA) RNA: UUUGAUUAAUAUGAUAUCGUUCUUUCUCAUGUAUAUUACUUUCUUUCUCGAUAUCAUAUUAAUCUUU,0.716
12,Id_ii_S2_P4E.3_K4.2_C4.2_[C-2G]_[T-1C]_H4.2_A4.1_F4.1_T4.2_[G10C]_[T11G] (ssRNA) RNA: UUUGAUUAAUAUGAUAUCGUUCUUUCUGCUAUAUAUUACGUUCUUUCUCGAUAUCAUAUUAAUCUUU,37.1
13,Id_ii_S2_P4E.2_K4.1_C4.2_[T-1G]_H4.1_A4.1_F4.1_T4.2_[G10A] (ssRNA) RNA: UUUGAUUAAUAUGAUAUCGUUCUUUCUCGUGUAUAUUAAUUUCUUUCUCGAUAUCAUAUUAAUCUUU,0.316
14,Id_ii_S2_P4E.2_K4.1_C4.2_H4.1_A4.1_F4.1_T4.2_[G10A]_[T11A] (ssRNA) RNA: UUUGAUUAAUAUGAUAUCGUUCUUUCUCUUGUAUAUUAAAUUCUUUCUCGAUAUCAUAUUAAUCUUU,0.537
15,Id_ii_S2_P4E.2_K4.1_C4.2_[C-2A]_[T-1A]_H4.1_A4.1_F4.1_T4.2_[G10C]_[T11C] (ssRNA) RNA: UUUGAUUAAUAUGAUAUCGUUCUUUCUAAUGUAUAUUACCUUCUUUCUCGAUAUCAUAUUAAUCUUU,2.15
16,Id_ii_S2_P4E.2_K4.1_C4.2_[C-2A]_H4.1_A4.1_F4.1_T4.2_[G10C] (ssRNA) RNA: UUUGAUUAAUAUGAUAUCGUUCUUUCUAUUGUAUAUUACUUUCUUUCUCGAUAUCAUAUUAAUCUUU,1.11
17,Id_ii_S2_P4E.2_K4.1_C4.2_H4.1_A4.1_F4.1_T4.2_[G10A]_[T11C] (ssRNA) RNA: UUUGAUUAAUAUGAUAUCGUUCUUUCUCUUGUAUAUUAACUUCUUUCUCGAUAUCAUAUUAAUCUUU,0.566
18,Id_ii_S2_P4E.2_K4.1_C4.2_[C-2A]_[T-1C]_H4.1_A4.1_F4.1_T4.2_[G10A] (ssRNA) RNA: UUUGAUUAAUAUGAUAUCGUUCUUUCUACUGUAUAUUAAUUUCUUUCUCGAUAUCAUAUUAAUCUUU,0.442
19,Id_ii_S2_P4E.2_K4.1_C4.2_[T-1C]_H4.1_A4.1_F4.1_T4.2_[G10A]_[T11G] (ssRNA) RNA: UUUGAUUAAUAUGAUAUCGUUCUUUCUCCUGUAUAUUAAGUUCUUUCUCGAUAUCAUAUUAAUCUUU,1.63
20,Id_ii_S2_P4E.2_K4.1_C4.2_[C-2A]_H4.1_A4.1_F4.1_T4.2_[G10A]_[T11A] (ssRNA) RNA: UUUGAUUAAUAUGAUAUCGUUCUUUCUAUUGUAUAUUAAAUUCUUUCUCGAUAUCAUAUUAAUCUUU,0.939
21,Id_ii_S2_P4E.2_K4.1_C4.2_[C-2A]_[T-1A]_H4.1_A4.1_F4.1_T4.2_[G10A] (ssRNA) RNA: UUUGAUUAAUAUGAUAUCGUUCUUUCUAAUGUAUAUUAAUUUCUUUCUCGAUAUCAUAUUAAUCUUU,1.93
22,Id_ii_S2_P4E.2_K4.1_C4.2_[T-1A]_H4.1_A4.1_F4.1_T4.2_[G10A]_[T11G] (ssRNA) RNA: UUUGAUUAAUAUGAUAUCGUUCUUUCUCAUGUAUAUUAAGUUCUUUCUCGAUAUCAUAUUAAUCUUU,2.6
